Data reported in patent publication US20080254465, “Assays for measuring nucleic acid binding proteins and enzyme activities” (BioVeris Corporation, published 2008).

B1: NF-kB consensus substrate, phosphorothioate (dsDNA)
DNA 1: AGTTGAGGGGACTTTCCCAGGC
DNA 2: GCCTGGGAAAGTCCCCTCAACT
modifications: PS within bracketed nucleotides AGTTGAGG (5') and CCCAGGC (3') of the labelled strand
B2: NF-kB consensus substrate, all phosphodiester (dsDNA)
DNA 1: AGTTGAGGGGACTTTCCCAGGC
DNA 2: GCCTGGGAAAGTCCCCTCAACT

Experiments:
[1] = target: AP-2 (UniProt P05549 P05549:1-437); test: footprint; ECL 32289 vs 54041 unprotected; no DNase protection; settings: chain copies: 2
AP-2, sequence (P05549 whole entry, one chain of several): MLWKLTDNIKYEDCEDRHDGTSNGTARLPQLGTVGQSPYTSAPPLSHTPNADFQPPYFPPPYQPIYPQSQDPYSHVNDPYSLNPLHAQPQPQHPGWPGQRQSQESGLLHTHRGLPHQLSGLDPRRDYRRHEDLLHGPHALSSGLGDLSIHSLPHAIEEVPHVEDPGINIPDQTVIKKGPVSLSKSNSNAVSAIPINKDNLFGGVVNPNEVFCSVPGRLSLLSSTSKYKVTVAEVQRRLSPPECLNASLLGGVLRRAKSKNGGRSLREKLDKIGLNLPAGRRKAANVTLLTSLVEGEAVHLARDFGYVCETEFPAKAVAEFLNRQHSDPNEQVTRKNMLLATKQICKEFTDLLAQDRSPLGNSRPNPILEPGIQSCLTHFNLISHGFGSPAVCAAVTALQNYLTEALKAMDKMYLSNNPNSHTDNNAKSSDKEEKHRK
Method: (§1) The labeled DNA substrate (50 fmol), poly dI-dC (1 ug, to reduce non-specific protein-DNA interactions) and varying amounts of recombinant NFkβ (p50 subunit) were combined in a 20 uL volume and incubated for 30 min. at room temperature. Dnase 1 (2 Units in a volume of 2 uL, Promega Corp.) was then added and the incubation was continued for an additional 30 min. at room temperature. The reaction was terminated and the biotin-labeled DNA sequences captured by in the addition of 10 µg of streptavidin Dynabeads (IGEN, International) in 0.3 ml PBS-1 containing 0.2 M EDTA, followed by incubation for 15 minutes. The reaction mixture was introduced into an ORIGEN Analyzer (IGEN International) running in Magnetic Capture Mode and the ECL signal from RuBpy on the magnetic beads was determined in the presence of a solution containing tripropylamine (ORIGEN Assay Buffer, IGEN International). A control was also run in the absence of Dnase to determine the ECL signal obtained from the uncleaved substrate. […]
(§2) The specificity of the assay was determined by replacing the specific binding protein NFkβ with other DNA binding proteins specific for sequences not present on the DNA substrate (the phosphorothioate containing substrate was used).

[2] = target: T1, NF-kB p50 subunit (UniProt P19838 P19838:1-433); test: footprint; DNase I protection with ECL readout; dose dependent, signal 1729305 at 7 ng vs 96862 unprotected and 2591957 without DNase; poly dI-dC, room temperature; settings: tags: recombinant, Promega; chain copies: 2 inferred
T1 sequence (P19838 1-433, one chain of several): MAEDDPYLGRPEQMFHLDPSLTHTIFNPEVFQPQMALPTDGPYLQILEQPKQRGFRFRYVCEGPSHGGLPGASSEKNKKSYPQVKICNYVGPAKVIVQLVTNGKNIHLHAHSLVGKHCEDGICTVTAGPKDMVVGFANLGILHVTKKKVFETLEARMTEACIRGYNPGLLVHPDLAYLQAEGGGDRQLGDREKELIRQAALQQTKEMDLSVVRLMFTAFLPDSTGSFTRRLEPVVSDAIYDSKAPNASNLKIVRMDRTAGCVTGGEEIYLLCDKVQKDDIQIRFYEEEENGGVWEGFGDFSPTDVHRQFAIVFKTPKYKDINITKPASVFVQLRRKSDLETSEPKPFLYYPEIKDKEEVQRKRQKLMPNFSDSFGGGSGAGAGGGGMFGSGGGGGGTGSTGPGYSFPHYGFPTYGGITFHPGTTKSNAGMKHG
Method: (§3) The labeled DNA substrate (50 fmol), poly dI-dC (1 ug, to reduce non-specific protein-DNA interactions) and varying amounts of recombinant NFkβ (p50 subunit) were combined in a 20 uL volume and incubated for 30 min. at room temperature. Dnase 1 (2 Units in a volume of 2 uL, Promega Corp.) was then added and the incubation was continued for an additional 30 min. at room temperature. The reaction was terminated and the biotin-labeled DNA sequences captured by in the addition of 10 µg of streptavidin Dynabeads (IGEN, International) in 0.3 ml PBS-1 containing 0.2 M EDTA, followed by incubation for 15 minutes. The reaction mixture was introduced into an ORIGEN Analyzer (IGEN International) running in Magnetic Capture Mode and the ECL signal from RuBpy on the magnetic beads was determined in the presence of a solution containing tripropylamine (ORIGEN Assay Buffer, IGEN International). A control was also run in the absence of Dnase to determine the ECL signal obtained from the uncleaved substrate. […] The addition of NFkβ gave a dose dependent increase in signal relative to that obtained from unprotected DNA, the magnitude of which approached, for high concentrations of NFkβ, the signal obtained in the absence of DNAse. The experiment was repeated with an DNA substrate with the same nucleotide sequence but containing only phosphodiester linkages and similar results were obtained.

[3] = target: SP-1 (UniProt P08047 P08047:2-785); test: footprint; ECL 38880 vs 54041 unprotected; no DNase protection
SP-1, sequence (P08047 2-785, one chain of several): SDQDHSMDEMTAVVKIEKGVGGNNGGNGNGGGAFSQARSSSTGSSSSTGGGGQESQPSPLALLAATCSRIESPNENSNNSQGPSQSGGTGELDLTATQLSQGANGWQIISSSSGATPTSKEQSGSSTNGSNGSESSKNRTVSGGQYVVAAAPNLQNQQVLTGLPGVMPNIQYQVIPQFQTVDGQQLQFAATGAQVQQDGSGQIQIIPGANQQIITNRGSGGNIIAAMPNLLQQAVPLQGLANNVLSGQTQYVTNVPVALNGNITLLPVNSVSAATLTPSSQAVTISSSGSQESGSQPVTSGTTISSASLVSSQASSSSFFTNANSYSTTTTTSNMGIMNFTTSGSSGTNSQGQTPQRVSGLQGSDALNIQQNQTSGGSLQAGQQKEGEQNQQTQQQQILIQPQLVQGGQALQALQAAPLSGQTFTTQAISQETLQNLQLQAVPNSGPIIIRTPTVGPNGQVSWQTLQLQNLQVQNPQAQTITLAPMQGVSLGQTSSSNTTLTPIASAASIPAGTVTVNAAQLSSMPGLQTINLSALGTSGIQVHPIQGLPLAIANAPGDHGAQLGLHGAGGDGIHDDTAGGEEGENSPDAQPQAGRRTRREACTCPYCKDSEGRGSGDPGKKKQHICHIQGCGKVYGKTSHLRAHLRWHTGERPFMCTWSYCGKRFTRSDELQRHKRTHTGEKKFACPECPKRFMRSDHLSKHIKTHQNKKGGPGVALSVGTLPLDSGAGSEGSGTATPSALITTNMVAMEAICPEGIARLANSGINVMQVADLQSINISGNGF
Method: as §1, §2

[4] = target: T1, NF-kB p50 subunit; test: footprint; DNase I protection, similar results to phosphorothioate substrate; settings: tags: recombinant, Promega; chain copies: 2 inferred
Method: as §3

Binder	binding result [1]	binding result [2]	binding result [3]	binding result [4]
B1	no binding	binds	no binding	–
B2	–	–	–	binds
